According to US20150166647A1 (VLST, published 2015):

Legend:
human MIP-1α/CCL3 = target: T1, human MIP-1α/CCL3 (human, UniProt P10147 24-92); test: ELISA, hybridoma fusion-well supernatant on coated MIP-1α; background approx. 0.150
T1 construct: also called Biotin-MIP-1α
T1 sequence: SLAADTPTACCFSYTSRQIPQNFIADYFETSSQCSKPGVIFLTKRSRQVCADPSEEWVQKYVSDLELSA

Eotaxin = target: T2, Eotaxin; test: MSD electrochemiluminescence assay; chemokine coated at 1 µg/mL, 7D12A at 3 µg/mL; background = BSA
T2 construct: also called Eotaxin/CCL11; CCL11
T2 sequence (chemokine, as listed by the source): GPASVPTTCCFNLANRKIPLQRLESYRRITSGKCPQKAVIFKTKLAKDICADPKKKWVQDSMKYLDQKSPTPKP

HCC-4 = target: T3, HCC-4; test: as above
T3 construct: also called HCC-4/CCL16; CCL16
T3 chemokine: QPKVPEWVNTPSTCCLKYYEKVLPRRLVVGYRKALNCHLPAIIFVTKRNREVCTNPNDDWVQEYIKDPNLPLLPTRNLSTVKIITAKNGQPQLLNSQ

human PARC/CCL18 = target: T4, human PARC/CCL18 (human, UniProt P55774 21-89); test: as above
T4 sequence: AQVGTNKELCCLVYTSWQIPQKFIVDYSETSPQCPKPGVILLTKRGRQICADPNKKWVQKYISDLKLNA

ELC = target: T5, ELC; test: as above
T5 construct: also called ELC/MIP-3β/CCL19; CCL19
T5 chemokine: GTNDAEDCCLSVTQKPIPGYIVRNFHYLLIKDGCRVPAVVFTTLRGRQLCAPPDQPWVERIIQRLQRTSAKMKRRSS

MCP-3 = target: T6, MCP-3; test: as above
T6 construct: also called MCP-3/CCL7; CCL7
T6 sequence (chemokine, as listed by the source): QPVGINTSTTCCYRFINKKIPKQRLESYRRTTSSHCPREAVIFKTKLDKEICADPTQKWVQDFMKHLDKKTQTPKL

human HCC-1/CCL14/CCL14a = target: T7, human HCC-1/CCL14/CCL14a (human, UniProt Q16627 28-93); test: as above
T7 sequence: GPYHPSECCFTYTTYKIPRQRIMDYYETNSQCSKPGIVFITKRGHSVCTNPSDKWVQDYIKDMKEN

MCP-4 = target: T8, MCP-4; test: as above
T8 construct: also called MCP-4/CCL13; CCL13
T8 sequence (chemokine, as listed by the source): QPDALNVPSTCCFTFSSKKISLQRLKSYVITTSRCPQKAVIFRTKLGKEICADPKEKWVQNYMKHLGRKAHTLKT

human MCP-1/CCL2 = target: T9, human MCP-1/CCL2 (human, UniProt P13500 24-99); test: as above
T9 construct: also called Biotin-MCP1
T9 sequence (P13500 24-99 limits assumed): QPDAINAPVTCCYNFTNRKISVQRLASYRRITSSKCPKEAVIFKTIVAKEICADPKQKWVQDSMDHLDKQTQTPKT

SDF = target: T10, SDF; test: as above
T10 construct: also called SDF-1/CXCL12; CXCL12
T10 sequence (chemokine, as listed by the source): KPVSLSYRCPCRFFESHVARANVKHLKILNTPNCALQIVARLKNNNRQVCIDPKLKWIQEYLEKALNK

human HCC-2/MIP-1δ/CCL15 = target: T11, human HCC-2/MIP-1δ/CCL15 (human, UniProt Q16663 46-113); test: as above
T11 sequence: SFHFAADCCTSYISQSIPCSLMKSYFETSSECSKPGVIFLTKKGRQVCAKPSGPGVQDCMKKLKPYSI

MDC = target: T12, MDC; test: as above
T12 construct: also called MDC/CCL22; CCL22
T12 chemokine: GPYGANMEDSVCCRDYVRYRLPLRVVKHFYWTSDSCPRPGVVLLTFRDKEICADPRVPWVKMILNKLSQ

I-309 = target: T13, I-309; test: as above
T13 construct: also called I-309/CCL1; CCL1
T13 chemokine: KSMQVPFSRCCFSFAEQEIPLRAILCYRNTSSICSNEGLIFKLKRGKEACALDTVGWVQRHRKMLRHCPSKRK

MCP-2 = target: T14, MCP-2; test: as above
T14 construct: also called MCP-2/CCL8; CCL8
T14 chemokine: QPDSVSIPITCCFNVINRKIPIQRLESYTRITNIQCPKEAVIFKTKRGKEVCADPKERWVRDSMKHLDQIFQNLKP

IL-8 = target: T15, IL-8; test: as above
T15 construct: also called IL-8/CXCL8; CXCL8
T15 sequence (chemokine, as listed by the source): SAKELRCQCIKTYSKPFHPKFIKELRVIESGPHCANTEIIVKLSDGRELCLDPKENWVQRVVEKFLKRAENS

human MPIF-1/CCL23 = target: T16, human MPIF-1/CCL23 (human, UniProt P55773 46-120); test: as above
T16 sequence: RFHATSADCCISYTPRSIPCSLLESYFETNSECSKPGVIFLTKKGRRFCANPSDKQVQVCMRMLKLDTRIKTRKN

Fractalkine = target: T17, Fractalkine; test: as above
T17 construct: also called Fractalkine/CX3CL1; CX3CL1
T17 chemokine: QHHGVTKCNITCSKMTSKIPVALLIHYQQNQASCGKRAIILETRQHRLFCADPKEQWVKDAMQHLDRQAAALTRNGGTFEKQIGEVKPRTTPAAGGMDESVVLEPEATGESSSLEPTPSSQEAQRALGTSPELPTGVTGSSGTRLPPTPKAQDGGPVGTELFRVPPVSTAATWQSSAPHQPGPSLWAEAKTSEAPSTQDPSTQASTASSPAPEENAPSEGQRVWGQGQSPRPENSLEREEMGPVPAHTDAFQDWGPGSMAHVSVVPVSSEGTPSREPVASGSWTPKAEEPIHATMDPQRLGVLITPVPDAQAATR

ELISA signal (human MIP-1α/CCL3): 1.47 | binding result (Eotaxin): no binding (tested: 3 µg/mL) | binding result (HCC-4): no binding (tested: 3 µg/mL) | binding result (human PARC/CCL18): no binding (tested: 3 µg/mL) | binding result (ELC): no binding (tested: 3 µg/mL) | binding result (MCP-3): no binding (tested: 3 µg/mL) | binding result (human HCC-1/CCL14/CCL14a): no binding (tested: 3 µg/mL) | binding result (MCP-4): no binding (tested: 3 µg/mL) | binding result (human MCP-1/CCL2): no binding (tested: 3 µg/mL) | binding result (SDF): no binding (tested: 3 µg/mL) | binding result (human HCC-2/MIP-1δ/CCL15): no binding (tested: 3 µg/mL) | binding result (MDC): no binding (tested: 3 µg/mL) | binding result (I-309): no binding (tested: 3 µg/mL) | binding result (MCP-2): no binding (tested: 3 µg/mL) | binding result (IL-8): no binding (tested: 3 µg/mL) | binding result (human MPIF-1/CCL23): binds | binding result (Fractalkine): no binding (tested: 3 µg/mL)
B1: monoclonal antibody 7D12A (antibody, V domains shown)
VH: EVHLQESGPSLVKPSQTLSLTCSVTGDSITNGYWNWIRKFPGNKLDYMGYISYDGNTYYNPSLKSRFSITRDTSKNQYYLQLNSVTTEDTATYYCSRGDYGTYVMDYWGQGTSVTVSS
VL: NIVLTQSPVSLAVSLGQRATISCRASESVDSHGNSFMHWYQQKPGQPPKLLIYLASNLESGVPARFTGGGSGSDFTLTIDPVEADDVGTYYCQQNNEDPYTFGGGTKLEIK
notes: also called MAb 7D12A
